We go through 2 molecules from patent US20150299312A1 (TECHNISCHE UNIVERSIT T DRESDEN, published 2015).

This assay has as its target T1, P-selectin glycoprotein ligand 1 (PSGL-1) with the O-bound glycan structure 6-sulfo N-acetyl lactosamine … (human, UniProt Q14242 42-412).
T1 construct: whole, on cells; also called slan
T1 sequence (looked up): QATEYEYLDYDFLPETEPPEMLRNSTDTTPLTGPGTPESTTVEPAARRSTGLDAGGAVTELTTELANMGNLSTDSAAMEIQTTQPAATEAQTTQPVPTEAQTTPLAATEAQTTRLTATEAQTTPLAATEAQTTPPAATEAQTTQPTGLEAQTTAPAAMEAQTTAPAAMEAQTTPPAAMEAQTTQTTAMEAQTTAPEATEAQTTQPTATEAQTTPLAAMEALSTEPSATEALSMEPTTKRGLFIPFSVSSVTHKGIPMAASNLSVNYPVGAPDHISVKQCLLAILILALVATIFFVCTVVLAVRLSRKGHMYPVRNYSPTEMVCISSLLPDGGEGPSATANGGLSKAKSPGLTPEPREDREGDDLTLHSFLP
Kind of assay: affinity to slan-DCs; method not stated.

Changes are numbered by the printed parent chain.

B1: monoclonal IgM antibody MB4 (antibody, V domains shown)
VH: EVKLQESGPGLVQPSQSLSITCTVSGFSLTTYGVHWIRQSPGKGLEWLGVIWSGGGTDFNVAFMSRLSINKDNSKSQIFFKMNSLQANDTAIYYCARRTTNDGNYAFAYWGQGTLVTVS
VL: DIVMTQSPLSLPVSLGDQASISCRSSQNILHSDGSTYLEWYLQKPGQSPKLLIYKVSNRFSGVPDRFSGSGSGTDFTLKISRVEAEDLGVYYCFQGSHVPWTFGGGTKLEIKR
notes: also called anti-slan antibody MB4
In the case of B1, the affinity, expressed as Kd, was 0.4 pM and the “fold higher affinity than DD2 or M-DC8” value is roughly 25 fold.

B2: monoclonal IgM antibody MB6 (antibody, V domains shown)
VH: B1 VH with Q5E, E6Q, P14L, M64I, I78V
VL: B1 VL with S35N
notes: also called anti-slan antibody MB6
As to B2, binding was characterised by a dissociation constant (Kd) of 0.4 pM and the “fold higher affinity than DD2 or M-DC8” value was roughly 25 fold.
